# Source: article PMC13342644 (2026)
# Columns and labels:
# NB2 = experiment: ELISA
# NB1 = experiment: ELISA
binder,measurement,setting,value
"Avi-tagged, biotinylated GDP-mannose transporter Vrg4 from Candida albicans (natural protein, biotin (Avi tag biotinylated using BirA ligase)) MDSKHSTSSSSSGSLATRISNSGPISIAAYCLSSILMTVTNKYVLSGFSFNLNFFLLAVQSIVCIVTIGSLKSLNIITYRQFNKDEAKKWSPIAFLLVAMIYTSSKALQYLSIPVYTIFKNLTIILIAYGEVIWFGGKVTTMALSSFLLMVLSSVIAYYGDNAAVKSHDDAFALYLGYFWMLTNCFASAAFVLIMRKRIKLTNFKDFDTMYYNNLLSIPILLICSFIFEDWSSANVSLNFPADNRVTTITAMILSGASSVGISYCSAWCVRVTSSTTYSMVGALNKLPIALSGLIFFEAAVNFWSVSSIFVGFGAGLVYAVAKQKQQKEQSQQLPTTK",Kd,NB2,125 nM
same,Kd,NB1,109 nM
